The target in the assay is T1, achaete-scute homolog 1 (ASCL1), expressed in cells (UniProt P50553 1-236).
T1 sequence (looked up): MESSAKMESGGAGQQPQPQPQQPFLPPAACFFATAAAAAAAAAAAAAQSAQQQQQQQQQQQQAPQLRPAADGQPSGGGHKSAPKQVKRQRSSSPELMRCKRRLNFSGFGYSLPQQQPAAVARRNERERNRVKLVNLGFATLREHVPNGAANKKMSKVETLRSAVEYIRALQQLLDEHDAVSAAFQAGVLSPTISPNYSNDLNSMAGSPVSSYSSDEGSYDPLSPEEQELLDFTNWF
Put plainly: cell-based or functional assay.

B1: Transcription factor 4 isoform TCF4-A¯, wild type (natural protein, human, UniProt P15884-6 1-507, looked up)
chain: MYCAYTIPGMGGNSLMYYYNGKAVYAPSASTADYNRDSPGYPSSKPATSTFPSSFFMQDGHHSSDPWSSSSGMNQPGYAGMLGNSSHIPQSSSYCSLHPHERLSYPSHSSADINSSLPPMSTFHRSGTNHYSTSSCTPPANGTDSIMANRGSGAAGSSQTGDALGKALASIYSPDHTNNSFSSNPSTPVGSPPSLSAGTAVWSRNGGQASSSPNYEGPLHSLQSRIEDRLERLDDAIHVLRNHAVGPSTAMPGGHGDMHGIIGPSHNGAMGGLGSGYGTGLLSANRHSLMVGTHREDGVALRGSHSLLPNQVPVPQLPVQSATSPDLNPPQDPYRGMPPGLQGQSVSSGSSEIKSDDEGDENLQDTKSSEDKKLDDDKKDIKSITSNNDDEDLTPEQKAEREKERRMANNARERLRVRDINEAFKELGRMVQLHLKSDKPQTKLLILHQAVAVILSLEQQVRERNLNPKAACLKRREEEKVSSEPPPLSLAGPHPGMGDASNHMGQM
B1: the “luciferase reporter (12 μE5 E-boxes, TK promoter) in depolarized rat primary neurons; increase when ASCL1 was coexpressed” value came out at 2.5 fold.

B2: TCF4-B¯ A587P (natural protein, human, UniProt P15884-3 1-671, looked up)
chain: MHHQQRMAALGTDKELSDLLDFSAMFSPPVSSGKNGPTSLASGHFTGSNVEDRSSSGSWGNGGHPSPSRNYGDGTPYDHMTSRDLGSHDNLSPPFVNSRIQSKTERGSYSSYGRESNLQGCHQQSLLGGDMDMGNPGTLSPTKPGSQYYQYSSNNPRRRPLHSSAMEVQTKKVRKVPPGLPSSVYAPSASTADYNRDSPGYPSSKPATSTFPSSFFMQDGHHSSDPWSSSSGMNQPGYAGMLGNSSHIPQSSSYCSLHPHERLSYPSHSSADINSSLPPMSTFHRSGTNHYSTSSCTPPANGTDSIMANRGSGAAGSSQTGDALGKALASIYSPDHTNNSFSSNPSTPVGSPPSLSAGTAVWSRNGGQASSSPNYEGPLHSLQSRIEDRLERLDDAIHVLRNHAVGPSTAMPGGHGDMHGIIGPSHNGAMGGLGSGYGTGLLSANRHSLMVGTHREDGVALRGSHSLLPNQVPVPQLPVQSATSPDLNPPQDPYRGMPPGLQGQSVSSGSSEIKSDDEGDENLQDTKSSEDKKLDDDKKDIKSITSNNDDEDLTPEQKAEREKERRMANNARERLRVRDINEPFKELGRMVQLHLKSDKPQTKLLILHQAVAVILSLEQQVRERNLNPKAACLKRREEEKVSSEPPPLSLAGPHPGMGDASNHMGQM
Consider B2, for which the “luciferase reporter (12 μE5 E-boxes, minimal promoter) in HEK293 cells, coexpressed with ASCL1; reduction against WT TCF4-B¯” value is 4.8 fold.

B3: TCF4-B¯ S253R (natural protein, human, UniProt P15884-3 1-671, looked up)
chain: MHHQQRMAALGTDKELSDLLDFSAMFSPPVSSGKNGPTSLASGHFTGSNVEDRSSSGSWGNGGHPSPSRNYGDGTPYDHMTSRDLGSHDNLSPPFVNSRIQSKTERGSYSSYGRESNLQGCHQQSLLGGDMDMGNPGTLSPTKPGSQYYQYSSNNPRRRPLHSSAMEVQTKKVRKVPPGLPSSVYAPSASTADYNRDSPGYPSSKPATSTFPSSFFMQDGHHSSDPWSSSSGMNQPGYAGMLGNSSHIPQSSRYCSLHPHERLSYPSHSSADINSSLPPMSTFHRSGTNHYSTSSCTPPANGTDSIMANRGSGAAGSSQTGDALGKALASIYSPDHTNNSFSSNPSTPVGSPPSLSAGTAVWSRNGGQASSSPNYEGPLHSLQSRIEDRLERLDDAIHVLRNHAVGPSTAMPGGHGDMHGIIGPSHNGAMGGLGSGYGTGLLSANRHSLMVGTHREDGVALRGSHSLLPNQVPVPQLPVQSATSPDLNPPQDPYRGMPPGLQGQSVSSGSSEIKSDDEGDENLQDTKSSEDKKLDDDKKDIKSITSNNDDEDLTPEQKAEREKERRMANNARERLRVRDINEAFKELGRMVQLHLKSDKPQTKLLILHQAVAVILSLEQQVRERNLNPKAACLKRREEEKVSSEPPPLSLAGPHPGMGDASNHMGQM
In the case of B3, the “luciferase reporter (12 μE5 E-boxes, minimal promoter) in HEK293 cells, coexpressed with ASCL1; reduction against WT TCF4-B¯” value was 1.4 fold.

B4: TCF4-B¯ N585D (natural protein, human, UniProt P15884-3 1-671, looked up)
chain: MHHQQRMAALGTDKELSDLLDFSAMFSPPVSSGKNGPTSLASGHFTGSNVEDRSSSGSWGNGGHPSPSRNYGDGTPYDHMTSRDLGSHDNLSPPFVNSRIQSKTERGSYSSYGRESNLQGCHQQSLLGGDMDMGNPGTLSPTKPGSQYYQYSSNNPRRRPLHSSAMEVQTKKVRKVPPGLPSSVYAPSASTADYNRDSPGYPSSKPATSTFPSSFFMQDGHHSSDPWSSSSGMNQPGYAGMLGNSSHIPQSSSYCSLHPHERLSYPSHSSADINSSLPPMSTFHRSGTNHYSTSSCTPPANGTDSIMANRGSGAAGSSQTGDALGKALASIYSPDHTNNSFSSNPSTPVGSPPSLSAGTAVWSRNGGQASSSPNYEGPLHSLQSRIEDRLERLDDAIHVLRNHAVGPSTAMPGGHGDMHGIIGPSHNGAMGGLGSGYGTGLLSANRHSLMVGTHREDGVALRGSHSLLPNQVPVPQLPVQSATSPDLNPPQDPYRGMPPGLQGQSVSSGSSEIKSDDEGDENLQDTKSSEDKKLDDDKKDIKSITSNNDDEDLTPEQKAEREKERRMANNARERLRVRDIDEAFKELGRMVQLHLKSDKPQTKLLILHQAVAVILSLEQQVRERNLNPKAACLKRREEEKVSSEPPPLSLAGPHPGMGDASNHMGQM
As for B4, the “luciferase reporter (12 μE5 E-boxes, minimal promoter) in HEK293 cells, coexpressed with ASCL1; increase against WT TCF4-B¯” value is 1.6 fold and the “luciferase reporter in rat primary neurons, basal conditions, coexpressed with ASCL1; increase against WT TCF4-B¯” value came to 2.4 fold.

B5: TCF4-B¯ R569W (natural protein, human, UniProt P15884-3 1-671, looked up)
chain: MHHQQRMAALGTDKELSDLLDFSAMFSPPVSSGKNGPTSLASGHFTGSNVEDRSSSGSWGNGGHPSPSRNYGDGTPYDHMTSRDLGSHDNLSPPFVNSRIQSKTERGSYSSYGRESNLQGCHQQSLLGGDMDMGNPGTLSPTKPGSQYYQYSSNNPRRRPLHSSAMEVQTKKVRKVPPGLPSSVYAPSASTADYNRDSPGYPSSKPATSTFPSSFFMQDGHHSSDPWSSSSGMNQPGYAGMLGNSSHIPQSSSYCSLHPHERLSYPSHSSADINSSLPPMSTFHRSGTNHYSTSSCTPPANGTDSIMANRGSGAAGSSQTGDALGKALASIYSPDHTNNSFSSNPSTPVGSPPSLSAGTAVWSRNGGQASSSPNYEGPLHSLQSRIEDRLERLDDAIHVLRNHAVGPSTAMPGGHGDMHGIIGPSHNGAMGGLGSGYGTGLLSANRHSLMVGTHREDGVALRGSHSLLPNQVPVPQLPVQSATSPDLNPPQDPYRGMPPGLQGQSVSSGSSEIKSDDEGDENLQDTKSSEDKKLDDDKKDIKSITSNNDDEDLTPEQKAEREKEWRMANNARERLRVRDINEAFKELGRMVQLHLKSDKPQTKLLILHQAVAVILSLEQQVRERNLNPKAACLKRREEEKVSSEPPPLSLAGPHPGMGDASNHMGQM
As for B5, the “luciferase reporter (12 μE5 E-boxes, minimal promoter) in HEK293 cells, coexpressed with ASCL1; increase against WT TCF4-B¯” value turned out to be 2.2 fold and the “luciferase reporter in rat primary neurons, basal conditions, coexpressed with ASCL1; increase against WT TCF4-B¯” value worked out at 2.8 fold.

The values are drawn from PMC8648840, “Functional consequences of TCF4 missense substitutions associated with Pitt-Hopkins syndrome, mild intellectual disability, and schizophrenia” (The Journal of Biological Chemistry, 2021).
